Data on 28 variants can be found in the supplement of paper PMC11811203.

To fix the notation:
B1: THAP1; numbered along this chain (parent)
chain: MVQSCSAYGCKNRYDKDKPVSFHKFPLTRPSLCKEWEAAVRRKNFKPTKYSSICSEHFTPDCFKRECNNKLLKENAVPTIFLCTEPHDKKEDLLEPQEQLPPPPLPPPVSQVDAAIGLLMPPLQTPVNLSVFCDHNYTVEDTMHQRKRIHQLEQQVEKLRKKLKTAQQRCRRQERQLEKLKEVVHFQKEKDDVSERGYVILPNDYFEIVEVPA

This data set covers variants of B1. Briefly: THAP1 transcriptional activity (GFP+/GFP- enrichment relative to wild-type constructs) (ratio to WT); higher = more THAP1 activity (PSMB5 reporter activation). As to conditions: with PSMB5 promoter-GFP reporter. The essentials: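 Activity values are replicate-mean bright/dim read fold changes divided by the mean of wild-type synonymous constructs. They come from a human THAP1 site-saturation library (residues 2–213, each changed to all 20 amino acids) delivered by lentivirus at MOI ~0.3, in duplicate, into THAP1-knockout HEK-293T cells with mClover3 at endogenous PSMB5. BFP+ cells were sorted into GFP-dim and GFP-bright bins after five days, and variants were counted by Illumina sequencing of genomic DNA amplicons.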
In the case of MVQSCSAYGCKNRYDKDKPVSFHKFPLTRPSLCKEWEAAVRRKNFKPTKYSSICSEHFTPDCFKRECNNRLLKENAVPTIFLCTEPHDKKEDLLEPQEQLPPPPLPPPVSQVDAAIGLLMPPLQTPVNLSVFCDHNYTVEDTMHQRKRIHQLEQQVEKLRKKLKTAQQRCRRQERQLEKLKEVVHFQKEKDDVSERGYVILPNDYFEIVEVPA [K70R], the THAP1 transcriptional activity is 2.14. The same measure for MVQSCSAYGCKNRYDKDKPVSFHKFPLTRPSLCKEWEAAVRRKNFKPTKYSSICSEHFTPKCFKRECNNKLLKENAVPTIFLCTEPHDKKEDLLEPQEQLPPPPLPPPVSQVDAAIGLLMPPLQTPVNLSVFCDHNYTVEDTMHQRKRIHQLEQQVEKLRKKLKTAQQRCRRQERQLEKLKEVVHFQKEKDDVSERGYVILPNDYFEIVEVPA [D61K]: 0.217; for MVQSCSAYGCKNRYDKDKPVSFHKFPLTRPSLCKEWEAAVRRKNFKPTKYSSICSEHFTPDCFKRECNNKLLKENAVPTIRLCTEPHDKKEDLLEPQEQLPPPPLPPPVSQVDAAIGLLMPPLQTPVNLSVFCDHNYTVEDTMHQRKRIHQLEQQVEKLRKKLKTAQQRCRRQERQLEKLKEVVHFQKEKDDVSERGYVILPNDYFEIVEVPA [F81R]: 0.298. With MVQSCSAYGCKNRYDKDKPVSFHKFPLTRPSLCKEWEAAVRRKNFKPTKYSSICSEHFTPDCFKRECNNKLLKENAVPTIFLCTEPHDKKEDLLEPQEQLPPPPLPPPVSQVDAAIGLLMPPLQTPVNLSVFCDHNYTVEDTMHSRKRIHQLEQQVEKLRKKLKTAQQRCRRQERQLEKLKEVVHFQKEKDDVSERGYVILPNDYFEIVEVPA [Q145S], the THAP1 transcriptional activity came out at 0.592. As to MVQSCSAYGCKNRYDKDKPVSFHKFPLTRPSLCKEWEAAVRRKNFKPTKYSSICSEHFTPDCFKRECNNKLLKENAVPTIFLCTEPHDKKEDLLEPQEQLPPPPLPPPVSQVDAAIGLLMPPLQTPVNLSVFCDHNYTVEDTMHQRKRIHQLEQQVEKLRKKLKTAQQRCRRQERQLEKLKEVTHFQKEKDDVSERGYVILPNDYFEIVEVPA [V184T], the THAP1 transcriptional activity is 1.1. The result for MVQSCSAYGCKNRYDKDKPVSFHKFPLTMPSLCKEWEAAVRRKNFKPTKYSSICSEHFTPDCFKRECNNKLLKENAVPTIFLCTEPHDKKEDLLEPQEQLPPPPLPPPVSQVDAAIGLLMPPLQTPVNLSVFCDHNYTVEDTMHQRKRIHQLEQQVEKLRKKLKTAQQRCRRQERQLEKLKEVVHFQKEKDDVSERGYVILPNDYFEIVEVPA [R29M] reads 0.162.

Regarding MVQSCSAYGCKNRYDKDKPVSFHKFPLTRPSLCKEWEAAVRRKNFKPTKYSSICSEHFTPDCFKRECNNKLLKENAVPTIFLCTEPHDKKEDLLEPQEQLPPPPLPPPVSQVDAAIGLLMPPLQTPVNLSVFCDHNYTVEDTMHQRKRIHQLEQQVEKLRKMLKTAQQRCRRQERQLEKLKEVVHFQKEKDDVSERGYVILPNDYFEIVEVPA [K162M], the THAP1 transcriptional activity came out at 0.318. The same measure for MVQSCSAYGCKNRYDKDKPVSFHKFPLTRPSLCKEWEAAVRRKNFKPTKYSSICSEHFTPDCFKRECNNKLLKENAVPTIFLCTEPHDKKEDLLEPQEQLPPPPLPPPVSQVDAAIGLLMPPLQTPVNLSQFCDHNYTVEDTMHQRKRIHQLEQQVEKLRKKLKTAQQRCRRQERQLEKLKEVVHFQKEKDDVSERGYVILPNDYFEIVEVPA [V131Q]: 0.386. Consider MVQSCSAYGCKNRYDKDKPVSFHKFPLTRPSLCKEWEAAVRRKNFKPTKYSSICSEHFTPDCFKSECNNKLLKENAVPTIFLCTEPHDKKEDLLEPQEQLPPPPLPPPVSQVDAAIGLLMPPLQTPVNLSVFCDHNYTVEDTMHQRKRIHQLEQQVEKLRKKLKTAQQRCRRQERQLEKLKEVVHFQKEKDDVSERGYVILPNDYFEIVEVPA [R65S], for which the THAP1 transcriptional activity turned out to be 0.735. MVQSCSAYGCKNRYDKDKPVSFHKFPLTRPSLCKEWEAAVRRKNFKPTKYSSICSEHFTPDCFKRECNNKLLKENAVPTIFLCTEPHDKKEDLLEPQEQLPPPPLPPPVSQVDAAIGLLMPPLQTPVNLSVFCDHNYEVEDTMHQRKRIHQLEQQVEKLRKKLKTAQQRCRRQERQLEKLKEVVHFQKEKDDVSERGYVILPNDYFEIVEVPA [T138E]: the THAP1 transcriptional activity amounted to 0.215. On to MVQSCSAYGCKNRYDKDKPVSFHKFPLTRPSLCKEWEAAVRRKNFKPTKYSSICSEHFTPDCFKRECNNKLLKENAVPTIFLCTEPHDKKEDLLEPQEQLPPPPLPPPVSQVDAAIGLLMPPLQTPVNLSVFCDHNYTVEDTMHQRKRIHQLEQQVEKLRKKEKTAQQRCRRQERQLEKLKEVVHFQKEKDDVSERGYVILPNDYFEIVEVPA [L163E], for which the THAP1 transcriptional activity came to 0.196. As for MVQSCSAYGCKNRYDKDKPVSFHKFPLTRPSLCKEWEAAVRRKNFKPTKYSSICSEHFTPDCFKRECNNKLLKEAAVPTIFLCTEPHDKKEDLLEPQEQLPPPPLPPPVSQVDAAIGLLMPPLQTPVNLSVFCDHNYTVEDTMHQRKRIHQLEQQVEKLRKKLKTAQQRCRRQERQLEKLKEVVHFQKEKDDVSERGYVILPNDYFEIVEVPA [N75A], the THAP1 transcriptional activity turned out to be 0.373. In the case of MVQSCSAYGCKNRYDKDKPVSFHKFPLTRPSLCKEWEAAVRRKNFKPTKYSSICSEHFTPDCFKRECNNKLLKENAVPTIFLCTEPHDKKEDLLEPQEQLPPPPLPPPVSQVDAAIGLLMPPLQTPVNLSVFCDHNYTVEDTMHQRKRIHQLEQQVEKLRKKLKTAQQRCRRQERQLEKLKEVVHFQKEKDDVSERGYVILANDYFEIVEVPA [P202A], the THAP1 transcriptional activity is 1.15. MVQSCSAYGCKNRYDKDKPVSFHKFPLTRPSLCKEWEAAVRRKNFKPVKYSSICSEHFTPDCFKRECNNKLLKENAVPTIFLCTEPHDKKEDLLEPQEQLPPPPLPPPVSQVDAAIGLLMPPLQTPVNLSVFCDHNYTVEDTMHQRKRIHQLEQQVEKLRKKLKTAQQRCRRQERQLEKLKEVVHFQKEKDDVSERGYVILPNDYFEIVEVPA [T48V]: the THAP1 transcriptional activity worked out at 0.12.

As for MVQSCSAYGCKNRYDKDKPVSFHKFPLTRPSLCKEWEAAVRRKNFKPTKYSSICSEHFTPDCFKRECNNKLLKENAAPTIFLCTEPHDKKEDLLEPQEQLPPPPLPPPVSQVDAAIGLLMPPLQTPVNLSVFCDHNYTVEDTMHQRKRIHQLEQQVEKLRKKLKTAQQRCRRQERQLEKLKEVVHFQKEKDDVSERGYVILPNDYFEIVEVPA [V77A], the THAP1 transcriptional activity stood at 0.343. Take MVQSCSAYGCKNRYDKDKPVSFHKFPLTRPSLCKEWEAAVRRKNFKPTKYSSICSEHFTPDCFKRECNNKLLKENAVPTIFLCTEPHDKKEDLLEPQEQLPPPPLPPPVSQVDAAIGLLMPPLQTPVNLSVFCDHNYTVEDTMHQRKRIHQLEQQVEKLRKKLMTAQQRCRRQERQLEKLKEVVHFQKEKDDVSERGYVILPNDYFEIVEVPA [K164M]: the THAP1 transcriptional activity was 0.258. For the variant MVQSCSAYGEKNRYDKDKPVSFHKFPLTRPSLCKEWEAAVRRKNFKPTKYSSICSEHFTPDCFKRECNNKLLKENAVPTIFLCTEPHDKKEDLLEPQEQLPPPPLPPPVSQVDAAIGLLMPPLQTPVNLSVFCDHNYTVEDTMHQRKRIHQLEQQVEKLRKKLKTAQQRCRRQERQLEKLKEVVHFQKEKDDVSERGYVILPNDYFEIVEVPA [C10E], the THAP1 transcriptional activity was 0.0982. Regarding MVQSCSAYGWKNRYDKDKPVSFHKFPLTRPSLCKEWEAAVRRKNFKPTKYSSICSEHFTPDCFKRECNNKLLKENAVPTIFLCTEPHDKKEDLLEPQEQLPPPPLPPPVSQVDAAIGLLMPPLQTPVNLSVFCDHNYTVEDTMHQRKRIHQLEQQVEKLRKKLKTAQQRCRRQERQLEKLKEVVHFQKEKDDVSERGYVILPNDYFEIVEVPA [C10W], the THAP1 transcriptional activity amounted to 0.125.

Take MVQSCSAYGCKNRYDKDKPVSFHKFPLTRPSLCKEWEAAVRRKNFKPTKYSSICSEHFTPDCFKRECNNKLLKENAVPTIFLCTEPHDKKEDLLEPQEQLPPPPLPPPVSQVRAAIGLLMPPLQTPVNLSVFCDHNYTVEDTMHQRKRIHQLEQQVEKLRKKLKTAQQRCRRQERQLEKLKEVVHFQKEKDDVSERGYVILPNDYFEIVEVPA [D113R]: the THAP1 transcriptional activity worked out at 0.285.

As to MVQSCSAYGCKNRYDKDKPVSFHKFPLTRPSLCKEWEAAVRRKNFKPTKYSSICSEHFTPDCFKRECNNKLLKENAVPTIFLCTEPHDKKEDLLEPQEQLPPPPLPPPVSQVDAAIGLLMPPLQTPVNLSVPCDHNYTVEDTMHQRKRIHQLEQQVEKLRKKLKTAQQRCRRQERQLEKLKEVVHFQKEKDDVSERGYVILPNDYFEIVEVPA [F132P], the THAP1 transcriptional activity worked out at 0.285.

Consider MVQSCSAYGCKNRYDKDKPVSFHKFPLTRPSLCKEWEAAVRRKNFKPTKYSSICSEHFTPDCFKRECNNKLLKENAVPTIFLCWEPHDKKEDLLEPQEQLPPPPLPPPVSQVDAAIGLLMPPLQTPVNLSVFCDHNYTVEDTMHQRKRIHQLEQQVEKLRKKLKTAQQRCRRQERQLEKLKEVVHFQKEKDDVSERGYVILPNDYFEIVEVPA [T84W], for which the THAP1 transcriptional activity was determined as 1.97. The same measure for MVQSCSAYGCKWRYDKDKPVSFHKFPLTRPSLCKEWEAAVRRKNFKPTKYSSICSEHFTPDCFKRECNNKLLKENAVPTIFLCTEPHDKKEDLLEPQEQLPPPPLPPPVSQVDAAIGLLMPPLQTPVNLSVFCDHNYTVEDTMHQRKRIHQLEQQVEKLRKKLKTAQQRCRRQERQLEKLKEVVHFQKEKDDVSERGYVILPNDYFEIVEVPA [N12W]: 0.121. On to MVQSCSAYGCKARYDKDKPVSFHKFPLTRPSLCKEWEAAVRRKNFKPTKYSSICSEHFTPDCFKRECNNKLLKENAVPTIFLCTEPHDKKEDLLEPQEQLPPPPLPPPVSQVDAAIGLLMPPLQTPVNLSVFCDHNYTVEDTMHQRKRIHQLEQQVEKLRKKLKTAQQRCRRQERQLEKLKEVVHFQKEKDDVSERGYVILPNDYFEIVEVPA [N12A], for which the THAP1 transcriptional activity worked out at 0.107. Consider MVQSCSAYGCKNRYDKDKPVSFHKFPLTRPSLCKEWEAAVRRKNFKPTKYSSICSEHFTPDCFKRECNNKLLKENAVPTIFLCTEPHDKKEDLLEPQEQLPPPPLPPPVGQVDAAIGLLMPPLQTPVNLSVFCDHNYTVEDTMHQRKRIHQLEQQVEKLRKKLKTAQQRCRRQERQLEKLKEVVHFQKEKDDVSERGYVILPNDYFEIVEVPA [S110G], for which the THAP1 transcriptional activity was found to be 1.15. MVQSCSAYGCKNRYDKDKPVSFHKFPLTRPSLCKEWEAAVRRKNFKPTKYSSICSEHFTPDCFKRECNNKLLKENAVPTIFLCTEPHDKKEDLLEPQEQLPIPPLPPPVSQVDAAIGLLMPPLQTPVNLSVFCDHNYTVEDTMHQRKRIHQLEQQVEKLRKKLKTAQQRCRRQERQLEKLKEVVHFQKEKDDVSERGYVILPNDYFEIVEVPA [P102I]: the THAP1 transcriptional activity came to 1.31. On to MVQSCSAYGCKNRYDKDKPVSFHKFPLTRPSLCKEWEAAVRRKNFKPTKYSSICSEHFTPDCFKRECNNKLLKENAVPTIFLCTEPHDKKEDLLEPQEQLPPPPLPPPVSQVDAAIGLLMPPLQTPVNLSVFCDHNYTVEDTMHQRKRIHQLEQQVEKLRKKLKTAQQRCRRQERQLEKLKEVVHFQKEKDDVSERGYVILPNDYFEQVEVPA [I208Q], for which the THAP1 transcriptional activity came out at 0.835.

In the case of MVQSCSAYGCKNRYDKDKPVSFHKFPLTRPSLCKEWEAAVRRKNFKPTKYSSICSEHFTPDCFKRECNNKLLKENAVPTIFLCTEPHDKKEDLLEPQEQLPPPPLPPPVSQVDAAIGLLMPPLQTPVNLSVFCDHNYTVEDTMHQRKRIHQLEQQVEKLRKKLKTAQQRCRRQERQLEKLKEVVHFQKEKDDVSERGYVILPNDYFEFVEVPA [I208F], the THAP1 transcriptional activity amounted to 0.98. As to MVQSCSAYGCKNRYDKDKPVSFHKFPLTRPSLCKEWEAAVRRKNFKPTKYSSICSEHFTPDCFKRECNNKLLKENAVPTIFLCTEPHDKKEDLLEPQEQLPPPPLPPPVSQVDAAIGLLMPPLQNPVNLSVFCDHNYTVEDTMHQRKRIHQLEQQVEKLRKKLKTAQQRCRRQERQLEKLKEVVHFQKEKDDVSERGYVILPNDYFEIVEVPA [T125N], the THAP1 transcriptional activity came to 0.786.
